US20240287172A1 (SCIRHOM, published 2024)

Assays:
[1] = target: T1, hiR2-FL-T555A-T7 (human, UniProt Q6PJF5 1-856); experiment: FACS on MEF-DKO cells expressing the variant, 3 µg/ml antibody
T1 sequence: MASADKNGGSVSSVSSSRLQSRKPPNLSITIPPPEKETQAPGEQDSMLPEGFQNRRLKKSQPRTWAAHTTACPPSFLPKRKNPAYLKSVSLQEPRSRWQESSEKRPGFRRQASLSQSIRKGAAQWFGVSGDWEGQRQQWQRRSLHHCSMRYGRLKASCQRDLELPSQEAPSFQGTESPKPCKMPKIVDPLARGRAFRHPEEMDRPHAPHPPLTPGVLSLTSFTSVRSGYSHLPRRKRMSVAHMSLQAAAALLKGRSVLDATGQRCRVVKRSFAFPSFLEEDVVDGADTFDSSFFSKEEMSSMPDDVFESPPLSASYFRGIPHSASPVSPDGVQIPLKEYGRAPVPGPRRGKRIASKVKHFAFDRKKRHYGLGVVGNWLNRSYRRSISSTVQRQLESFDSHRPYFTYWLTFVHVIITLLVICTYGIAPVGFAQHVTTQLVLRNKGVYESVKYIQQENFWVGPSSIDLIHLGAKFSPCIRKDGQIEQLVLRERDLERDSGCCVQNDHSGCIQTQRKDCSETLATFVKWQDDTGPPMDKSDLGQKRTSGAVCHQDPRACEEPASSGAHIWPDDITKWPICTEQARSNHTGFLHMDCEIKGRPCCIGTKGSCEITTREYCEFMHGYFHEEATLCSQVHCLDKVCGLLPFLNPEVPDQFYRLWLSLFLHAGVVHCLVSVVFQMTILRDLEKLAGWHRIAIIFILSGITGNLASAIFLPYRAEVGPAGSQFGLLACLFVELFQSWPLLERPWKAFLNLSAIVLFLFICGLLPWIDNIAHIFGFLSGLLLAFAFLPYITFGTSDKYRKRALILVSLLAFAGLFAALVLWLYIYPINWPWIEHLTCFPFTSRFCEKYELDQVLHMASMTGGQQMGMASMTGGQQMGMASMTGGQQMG
In short: (§1)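 Primary stain: antibody 3 μg/ml, 1 h on ice; controls buffer alone. Secondary: PE anti-mouse IgG F(ab′)2 1:100, 1 h on ice, light-protected. Washes at 4° C; read by flow cytometry.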

[2] = target: T2, hiR2-FL-N584A-T7 (human, UniProt Q6PJF5 1-856); experiment: as above
T2 sequence: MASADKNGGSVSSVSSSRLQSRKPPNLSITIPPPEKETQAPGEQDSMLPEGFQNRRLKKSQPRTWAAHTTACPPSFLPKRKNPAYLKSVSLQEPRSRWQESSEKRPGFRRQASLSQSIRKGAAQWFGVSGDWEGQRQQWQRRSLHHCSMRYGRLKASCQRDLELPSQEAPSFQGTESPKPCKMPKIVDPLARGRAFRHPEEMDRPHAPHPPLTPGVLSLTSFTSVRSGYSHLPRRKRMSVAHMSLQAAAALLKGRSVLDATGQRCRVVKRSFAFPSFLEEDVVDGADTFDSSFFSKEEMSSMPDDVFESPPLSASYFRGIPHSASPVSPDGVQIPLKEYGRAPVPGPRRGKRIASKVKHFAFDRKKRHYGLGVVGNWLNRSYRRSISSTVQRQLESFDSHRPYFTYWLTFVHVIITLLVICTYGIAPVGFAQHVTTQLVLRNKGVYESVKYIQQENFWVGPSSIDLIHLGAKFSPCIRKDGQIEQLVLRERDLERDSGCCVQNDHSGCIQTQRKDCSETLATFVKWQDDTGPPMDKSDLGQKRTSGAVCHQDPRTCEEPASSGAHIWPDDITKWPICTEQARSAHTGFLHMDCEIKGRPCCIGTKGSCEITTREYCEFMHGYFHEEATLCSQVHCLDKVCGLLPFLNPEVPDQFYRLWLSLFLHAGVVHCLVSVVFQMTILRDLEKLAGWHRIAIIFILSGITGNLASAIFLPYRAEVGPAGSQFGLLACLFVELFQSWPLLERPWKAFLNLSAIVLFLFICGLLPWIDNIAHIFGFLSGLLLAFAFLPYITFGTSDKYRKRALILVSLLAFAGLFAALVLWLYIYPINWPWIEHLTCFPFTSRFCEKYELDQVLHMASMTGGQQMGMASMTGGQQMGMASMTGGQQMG
In short: as §1

B1: antibody 3 (antibody, V domains shown)
VH: QVTLKESGPGILQPSQTLSLTCSFSGFSLTTFAMGIGWVRQPSGKGLEWLAHIWWDGEKYNNPVLKSRLTISKDTSKNQVFLRIANVDTPDTATYYCARISSIYYIIDNWGQGTSVTVSS
VL: DIVLTQSPATLSVTPGHSVSLSCRASQSISNNLHWYQKKSHESPRLLIKYVSQSISGIPSRFSGSGSGTDFTLSINSVETEDFGMYFCQQSYNWPLTFGAGTKLELK
notes: mouse IgG, kappa light chain; also called clone #3; purified antibody 3
- loss of binding vs wild type [1]: ≥ 30%
- loss of binding vs wild type [2]: ≥ 30%
